Consider 7 molecules from US20120277143A1 (Janssen / Centocor, published 2012).

In assay [1] the target is T1, human IL13 (human, UniProt P35225 35-146, biotinylated in the SPR assays (sites not given)). As to the kind of experiment: cell-based or functional assay.
The target in assay [2] is T1, human IL13. As to the kind of experiment: SPR ProteOn, biotin-hIL13 on streptavidin, 1:1 global fit. The procedure:
Complete kinetic data describing binding of various engineered binding protein molecules to human IL13 was measured using a method similar to that described above for the single point affinity analysis. Briefly, streptavidin (Pierce) was immobilized to similar levels (˜1800 RUs) on all six channels of a ProteOn GLC chip via amine coupling (pH 5.0). Biotinylated hIL13 was captured at different surface densities (600˜100 RUs) on different channels. Protein binding was tested starting at 40 nM diluted in a 3-fold concentration series over the different density IL13 surfaces; a buffer sample was injected to monitor the baseline stability. Dissociation phases for all concentrations of each binding protein sample were monitored for one hour at a flow rate of 100 μl/min. Response data for all concentration series from the different density surfaces were globally fit to a 1:1 simple langmuir binding model to extract values of the kinetic (kₒₙ, koff) and affinity (KD) constants provided in Table 16.

Assay [3] has as its target T1, human IL13. Kind of assay: cell-based or functional assay. This is another data set of the same source.
Assay [4] addresses T2, human IL4 (human, UniProt P05112 25-153, biotinylated in the SPR and competition assays (sites not given)).
T2 sequence: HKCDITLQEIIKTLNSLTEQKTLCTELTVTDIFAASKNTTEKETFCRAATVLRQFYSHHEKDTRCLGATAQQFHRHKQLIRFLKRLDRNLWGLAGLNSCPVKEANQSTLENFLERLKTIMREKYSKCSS
Kind of assay: cell-based or functional assay.

The target of assay [5] is T2, human IL4. Kind of assay: Affinity to IL4; method not re-described.
Assay [6] deals with T1, human IL13. Kind of assay: Affinity to IL13; method not re-described.
Assay [7] deals with T2, human IL4. Kind of assay: IL4R binding inhibition; repeats Table 17. The procedure: AR protein inhibition of IL4 binding to IL4 RA was assessed using IL4 RA-Fc (R&D Systems), comprising the Gly24-His232 which represents the ECD (SEQ ID NO: 5) fused to a human IgGl-Fc and therefor a disulfide linked homodimer. The protein was conjugated to carboxylated Luminex microspheres according to the manufacturer's protocol. For neutralization experiments, 5000 IL4RA-Fc conjugated beads in 50 μl were added to each well of a 96-well filter plate (Millipore). Biotinylated human IL4 was mixed with an appropriate dilution of AR protein in Luminex Assay Buffer (PBS, 1% BSA, pH 7.4) to give a final concentration of 67 pM IL4. The plate was incubated for 1 hour at RT in the dark on a plate shaker, set to shake vigorously to avoid bead aggregation. The plate was washed twice with 150 μl of wash buffer (PBS, 0.1% BSA, pH 7.4, 0.05% Tween-20) using a vacuum manifold followed by the addition of 50 μl of Streptavidin PE at 25 μg/ml and incubated at RT for 20 minutes. The plates were washed again and 150 μl of sheath fluid was added and the plate was placed on the shaker for 5 minute. Plates were read using a Luminex® 100 system; data were plotted as a function of AR protein concentration. IC₅₀ values were determined by fitting the data to the equation for sigmoidal dose response using PRISM software (GraphPAD PRISM) (Table 6).

For assay [8], the target named is T3, human IL13 R130Q (human, UniProt P35225 35-146, biotinylated (sites not given)).
T3 construct: Peprotech; also called IL13R13Q; R111Q
As to the kind of experiment: IL13Ra2 binding inhibition; repeats Table 17. As for the experimental part: (§1) Binding protein inhibition of IL13 binding to Rα2 was assessed using IL13Rα2-Fc (R&D Systems) conjugated to carboxylated Luminex microspheres according to the manufacturer's protocol. For biotinylation of IL13, recombinant human IL13 R130Q (Peprotech) was biotinylated at a 4:1 ratio using EZ-Link NHS-LC-Biotin (Pierce, #21336) for 2 hours at RT. The protein was dialyzed in PBS overnight to remove excess biotinylation reagent. For neutralization experiments, 5000 IL13 Rα2-Fc conjugated beads in 50 μl were added to each well of a 96-well filter plate (Millipore). 50 μl of biotinylated human IL13 at 1 ng/ml (80 pM) was mixed with an appropriate dilution of binding protein in Luminex Assay Buffer (PBS, 1% BSA, pH 7.4). The plate was incubated for 1 hour at RT in the dark on a plate shaker, set to shake vigorously to avoid bead aggregation. The plate was washed 3 times with 150 μl of wash buffer (PBS, 1% BSA, pH 7.4, 0.05% Tween-20) using a vacuum manifold followed by the addition of 50 μl of Streptavidin PE at 25 μg/ml and incubated at RT for 20 minutes. The plates were washed again and 100 μl of sheath fluid was added and the plate was placed on the shaker for 1 minute. Plates were read using a Luminex® 100 system; data were plotted as a function of binding protein concentration. IC₅₀ values were determined by fitting the data to the equation for sigmoidal dose response using PRIZM software (GraphPAD PRIZM).

Assay [9] concerns the target T2, human IL4. As to the kind of experiment: IL4RA binding inhibition; assay not re-described (Luminex of Example 2).
Assay [10] deals with T3, human IL13 R130Q. Kind of assay: IL13Ra2 binding inhibition; assay not re-described (Luminex of Example 2). The procedure:
as §1

T1 sequence (P35225 other isoform, or with tags, fused parts or gaps limits assumed): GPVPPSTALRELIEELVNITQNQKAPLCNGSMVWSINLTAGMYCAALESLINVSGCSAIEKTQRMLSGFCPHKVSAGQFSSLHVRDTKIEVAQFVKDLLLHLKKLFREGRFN
T3 sequence (P35225 35-146 limits assumed, stated change not applied): as the sequence (P35225 other isoform, or with tags, fused parts or gaps limits assumed) above, with R110Q counted along it

B1: 7G11r7 (designed binder)
chain: GLDKKLLEAARAGQDDEVRILMANGADVNATDEFDSTPLHLAARHGHLEIVEVLLKYGADVNAADFIGDTPLHLAAYRGHLEIVEVLLKYGVDVNADDHGDTPLHLAASTGHLEIVEVLLKHGADVNAQDKFGKTAFDISIDNGNEDLAEILQKAA
notes: optimized 7G11; expressed without HIS tag
With B1, the “HEK STAT6 IC50” value in assay [1] worked out at 85 pM. Besides, the Kd (commonly the constant that tells how readily two partners part at equilibrium) in assay [2] was 24.2 pM.

B2: 9F8r3 (designed binder)
chain: GLDKKLLEAARAGQDDEVRILMANGADVNASDIFGSTPLHLAARHGHLEIVEVLLKYGADVNAFDFIGDTPLHLAAYRGHLEIVEVLLKYGVDVNADDHGDTPLHLAAQIGHLEIVEVLLKHGADVNAQDKFGKTAFDISIDNGNEDLAEILQKAA
notes: optimized 9F8; expressed without HIS tag
B2: the “HEK STAT6 IC50” value in assay [1] turned out to be 202 pM. Also, the dissociation constant (Kd) in [2] worked out at 65.6 pM.

B3: C01_6G9_V1_C06_44C12_V2 (designed binder)
chain: DLDKKLLEAARAGQDDEVRILMANGADVNARDSYGSTPLHLAAREGHLEIVEVLLKYGADVNAADFIGDTPLHLAAYRGHLEIVEVLLKYGADVNASDITGETPLHLAAQIGHLEIVEVLLKHGADVNAQDKFGKTAFDISIDNGNEDLAEILQKLNGGGGSGGGGSGGGGSGGGGSDLGKKLLEAASAGQDDEVHILMANGADVNALDDSGYTPLHLAAEDGHLEIVEVLLKHGADVNAADRLGDTPLHLAAFVGHLEIVEVLLKAGADVNAVDLAGVTPLHVAAFYGHLEIVEVLLKAGADVNAQDKFGKTAFDISIDNGNEDLAEILQKLN
notes: bispecific IL13/IL4 ankyrin repeat protein with (GGGGS)4 linker; also called bispecific AR protein
For B3, the “A549/TARC IL13 IC50” value in assay [3] was 128 pM. For the same molecule, the “HEK Stat6 human IL13 IC50” value in [3] amounted to 15 pM. The “A549/TARC IL4 IC50” value in assay [4] is 55 pM. The “HEK stat6 hIL4 IC50” value in assay [4] amounted to 7.2 pM. Further, the “Ramos Assay IC50” value in assay [4] is 8.6 pM. Further, the values for the dissociation constant (Kd) in assay [5] and in assay [6] were 2 pM and 9.1 pM, respectively. The IC50 (commonly the concentration that inhibits the measured activity by half) was found to be 25 pM in assay [7], 23 pM in [8], 25 pM in assay [9] and 23 pM in [10].

B4: C06_44C12_V2_C01_6G9_V1 (designed binder)
chain: DLGKKLLEAASAGQDDEVHILMANGADVNALDDSGYTPLHLAAEDGHLEIVEVLLKHGADVNAADRLGDTPLHLAAFVGHLEIVEVLLKAGADVNAVDLAGVTPLHVAAFYGHLEIVEVLLKAGADVNAQDKFGKTAFDISIDNGNEDLAEILQKLNGGGGSGGGGSGGGGSGGGGSDLDKKLLEAARAGQDDEVRILMANGADVNARDSYGSTPLHLAAREGHLEIVEVLLKYGADVNAADFIGDTPLHLAAYRGHLEIVEVLLKYGADVNASDITGETPLHLAAQIGHLEIVEVLLKHGADVNAQDKFGKTAFDISIDNGNEDLAEILQKLN
notes: bispecific IL4/IL13 ankyrin repeat protein with (GGGGS)4 linker; also called bispecific AR protein
Consider B4, for which the “A549/TARC IL13 IC50” value in assay [3] came to 63 pM. Moreover, the “HEK Stat6 human IL13 IC50” value in [3] was 14 pM. The “A549/TARC IL4 IC50” value in [4] amounted to 16 pM. Further, in assay [4], the “HEK stat6 hIL4 IC50” value turned out to be 0.7 pM. Also, the “Ramos Assay IC50” value in assay [4] is 5.8 pM. In addition, the Kd in assay [5] stood at 1.7 pM; in assay [6], 11.6 pM. The half-maximal inhibitory concentration (IC50) in assay [7] came out at 17 pM; in assay [8] it was 28 pM; in assay [9], 17 pM; in assay [10] it was 28 pM.

B5: C06_53G6_V1_C01_6G9_V1 (designed binder)
chain: DLGKKLLEAARAGQDDEVRILMANGADVNATDDWGDTLLHLAATDGHLEIVEVLLKAGADVNANDAIGDTPLHLAALYGHLEIVEVLLKYGADVNATDLHGFTPLHLAAFWGHLEIVEVLLKHGADVNAQDKFGKTAFDISIDNGNEDLAEILQKLNGGGGSGGGGSGGGGSGGGGSDLDKKLLEAARAGQDDEVRILMANGADVNARDSYGSTPLHLAAREGHLEIVEVLLKYGADVNAADFIGDTPLHLAAYRGHLEIVEVLLKYGADVNASDITGETPLHLAAQIGHLEIVEVLLKHGADVNAQDKFGKTAFDISIDNGNEDLAEILQKLN
notes: as for B4
Consider B5, for which, in assay [3], the “A549/TARC IL13 IC50” value is 131 pM. Also, the “HEK Stat6 human IL13 IC50” value in assay [3] came out at 27 pM. Moreover, the “A549/TARC IL4 IC50” value in assay [4] came to 50 pM. Besides, the “HEK stat6 hIL4 IC50” value in [4] was found to be 3.9 pM. Besides, in assay [4], the “Ramos Assay IC50” value amounted to 8 pM. In addition, the Kd stood at 10.9 pM in assay [5] and 38.4 pM in [6]. Moreover, the IC50 is 34 pM in [7], 199 pM in assay [8], 34 pM in [9] and 199 pM in assay [10].

B6: C01_6G9_V1_C06_28E5_V1 (designed binder)
chain: DLDKKLLEAARAGQDDEVRILMANGADVNARDSYGSTPLHLAAREGHLEIVEVLLKYGADVNAADFIGDTPLHLAAYRGHLEIVEVLLKYGADVNASDITGETPLHLAAQIGHLEIVEVLLKHGADVNAQDKFGKTAFDISIDNGNEDLAEILQKLGGGGSGGGGSGGGGSGGGGSRSDLGKKLLEAARAGQDDEVRILMANGADVNAADDSGITPLHLAAEDGHLEIVEVLLKAGADVNAQDNLGDTPLHLAAWTGHLEIVEVLLKAGADVNAYDISGITPLHLAAFYGHLEIVEVLLKHGADVNAQDKFGKTAFDISIDNGNEDLAEILQKLN
notes: as for B3
B6: the “A549/TARC IL13 IC50” value in [3] amounted to 92 pM. Besides, the “HEK Stat6 human IL13 IC50” value in [3] is 19 pM. Further, the “A549/TARC IL4 IC50” value in assay [4] came to 33 pM. The “HEK stat6 hIL4 IC50” value in [4] stood at 2 pM. Also, the “Ramos Assay IC50” value in assay [4] is 6.9 pM. In addition, the Kd in assay [5] came out at 3.1 pM; in assay [6], 16.6 pM. Further, the IC50 is 24 pM in assay [7], 32 pM in assay [8], 24 pM in [9] and 32 pM in assay [10].

B7: C01_6G9_V1_C06_53G6_V1 (designed binder)
chain: DLDKKLLEAARAGQDDEVRILMANGADVNARDSYGSTPLHLAAREGHLEIVEVLLKYGADVNAADFIGDTPLHLAAYRGHLEIVEVLLKYGADVNASDITGETPLHLAAQIGHLEIVEVLLKHGADVNAQDKFGKTAFDISIDNGNEDLAEILQKLNGGGGSGGGGSGGGGSGGGGSDLGKKLLEAARAGQDDEVRILMANGADVNATDDWGDTLLHLAATDGHLEIVEVLLKAGADVNANDAIGDTPLHLAALYGHLEIVEVLLKYGADVNATDLHGFTPLHLAAFWGHLEIVEVLLKHGADVNAQDKFGKTAFDISIDNGNEDLAEILQKLN
notes: as for B3
As for B7, the “A549/TARC IL13 IC50” value in assay [3] is 75 pM. The “HEK Stat6 human IL13 IC50” value in assay [3] came out at 15 pM. Moreover, in assay [4], the “A549/TARC IL4 IC50” value is 24 pM. In addition, the “HEK stat6 hIL4 IC50” value in assay [4] worked out at 0.5 pM. Also, the “Ramos Assay IC50” value in [4] was 4.8 pM. For the same molecule, the Kd worked out at 3.1 pM in [5] and 9.3 pM in [6]. In addition, the IC50 in assay [7] was found to be 15 pM; in assay [8], 99 pM; in [9] it was 15 pM; in assay [10], 99 pM.
